Reference: publication PMC3794157, “Structure of the Fibrillin-1 N-Terminal Domains Suggests that Heparan Sulfate Regulates the Early Stages of Microfibril Assembly” (Structure(London, England:1993), 2013)

Key:
Experiment in all cases: pull-down; biotinylated cbEGF41-43 or control cbEGF32-34 immobilised on M270 streptavidin-coated magnetic beads; 15 ug His-tagged protein in 50 mM Tris-HCl pH 7.4, 150 mM NaCl, 2 mM CaCl2, 0.05% Tween-20, 1% BSA for 1 hr; western blot with anti-RGS-His-HRP
Details in all cases: both partners purified
[1] = target: T1, human fibrillin-1 FUN-EGF3 fragment (residues R45-E178) (human, UniProt P35555 45-178)
T1 construct: human fibrillin-1, fibrillin unique N-terminal (FUN) domain and EGF1-EGF3, residues R45-E178; The vector pQE-30 is named; also called wild-type (WT) FUN-EGF3; fibrillin N-terminal fragment
T1 sequence (P35555 45-178): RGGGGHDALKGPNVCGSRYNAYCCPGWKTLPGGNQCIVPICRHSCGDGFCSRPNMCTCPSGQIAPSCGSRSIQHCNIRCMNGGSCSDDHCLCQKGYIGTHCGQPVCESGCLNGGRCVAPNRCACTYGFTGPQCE

S88A FUN-EGF3 = target: T2, S88A FUN-EGF3 (human, UniProt P35555 45-178, S88A)
T2 construct: human fibrillin-1 FUN-EGF3, residues R45-E178, with S88 substituted with alanine
T2 sequence (P35555 45-178 S88A): as the sequence (P35555 45-178) above, with S44A counted along it

[2] = target: T3, FUN-EGF3 mutant lacking the 63Y-N-A-Y66 motif in the FUN domain (human, UniProt P35555 45-178, 63Y-N-A-Y66 deleted)
T3 construct: human fibrillin-1 FUN-EGF3, residues R45-E178, with 63Y-N-A-Y66 deleted; also called YNAY FUN-EGF3
T3 sequence (P35555 other isoform, or with tags, fused parts or gaps 63Y-N-A-Y66 deleted | 63Y-N-A-Y66 deleted | mutant): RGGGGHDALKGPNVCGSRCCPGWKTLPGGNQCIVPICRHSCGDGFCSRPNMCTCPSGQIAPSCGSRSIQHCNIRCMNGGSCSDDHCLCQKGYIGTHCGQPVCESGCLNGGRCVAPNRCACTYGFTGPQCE

FUN-EGF3 (G5) mutant = target: T4, FUN-EGF3 (G5) mutant (human, UniProt P35555 45-178, 113S-R-S-I-Q117 replaced with five glycines)
T4 construct: human fibrillin-1 FUN-EGF3, residues R45-E178, with 113S-R-S-I-Q117 of the EGF1-EGF2 linker replaced with five glycines; also called G5 FUN-EGF3
T4 sequence (P35555 other isoform, or with tags, fused parts or gaps with the stated changes): as the sequence (P35555 45-178) above, with S69G, R70G, S71G, I72G, Q73G counted along it

R62A FUN-EGF3 = target: T5, R62A FUN-EGF3 (human, UniProt P35555 45-178, R62A)
T5 construct: human fibrillin-1 FUN-EGF3, residues R45-E178, with R62A
T5 sequence (P35555 45-178 R62A): as the sequence (P35555 45-178) above, with R18A counted along it

- binding result [1]: binds
- binding result (S88A FUN-EGF3): binds
- binding result [2]: binds
- binding result (FUN-EGF3 (G5) mutant): binds
- binding result (R62A FUN-EGF3): binds
B1: human fibrillin-1 cbEGF41-43 fragment (residues D2567-V2687), biotinylated, C-terminal BirA tag (domain or fragment)
chain: not shown
modifications: biotin, site-specific, on the BirA tag
notes: Held on streptavidin-coated magnetic beads by its biotin; also called fibrillin C-terminal fragment; not shown: BirA tag, C-terminal, kept
